Measurements reported in the supplement of paper PMC12764529.
± gives the half width of the 95% confidence interval.

Key:
[1] = folding stability dG unfold from chymotrypsin proteolysis; higher = more stable
Outline: (§1)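 Digests were run with trypsin and chymotrypsin at 11 concentrations in threefold dilutions, plus a no-protease condition, on designed mini-proteins in a PA-tagged cDNA display construct. The mini-proteins were under 80 residues, had no cysteine, and were kept only when AlphaFold2 dimer inter-PAE was above 15. After sequencing, Bayesian fitting of the counts gave K50, from which unfolding free energy was derived against a sequence-predicted unfolded-state K50 and a shared folded-state K50, per protease or combined.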

[2] = folding stability dG unfold from trypsin proteolysis; higher = more stable
Outline: as §1

[3] = folding stability dG unfold (combined trypsin and chymotrypsin); higher = more stable
Outline: as §1

Sequence	folding stability dG unfold [1] [kcal/mol]	folding stability dG unfold [2] [kcal/mol]	folding stability dG unfold [3] [kcal/mol]
SAAFAIKAIATPPNGKKYEILALDNGEGVLVFIENGSKEIPLEELIKLIENNPELKIEKIEIRPLSEFLSAG [r14_336_TrMRF]	0.486 ± 0.19	0.667 ± 0.11	0.611 ± 0.17
SAAFKGKNGKTIKITAKVKPNELTPEQVKELALAAVKNIFPENEKVEVKVKVEKLPNGEVLVYVEVKAESAG [r14_389_TrMRF]	0.342 ± 0.17	1.22 ± 0.038	0.905 ± 0.085
SAAKIYILPGNNVILVRPPLPNGPFGELVIPTKPSELENPEFLKEIVDEIRKAGIPFEATILPPGVPPESAG [r14_60_TrMRF]	1.34 ± 0.11	0.426 ± 0.089	0.868 ± 0.24
SAAKKLKELGYKVKKVEVLKPFTLPDGTTLTEYRITVELPTKTVTVDIIAPGESPEIAEEAALAAITASSAG [r14_726_TrMRF]	3.157 ± 0.011	1.25 ± 0.016	2.81 ± 0.051
SAALAELLLNEGYEVRIEVEVREVRPRTLPGGGTTVELDITVRIELRPPPIPPPPLDPRLLRDEDGHLRSAG [r14_569_TrMRF]	1.95 ± 0.071	2.35 ± 0.037	2.15 ± 0.1
SAANPKDIVKAEIEIPGKYGAKFTVYTLPDGTVIVPAEVTLIEGDKPVKKPLVLVVDASTGKILAIADASAG [r14_630_TrMRF]	1.68 ± 0.06	1.09 ± 0.033	1.46 ± 0.042
SAARVTVTYDPATNTVTVTVEVEVDGVTVTVTATVTFVDGRLVLTVTVEVRPPPPPPSAEQLAALRAAASAG [r14_930_TrROS_Hall]	2.69 ± 0.072	2.92 ± 0.19	2.74 ± 0.33
SAAVTPLTETIPYTPEEARAAAEEVAAARAAALRAAGYRVLSVDVVEMEPGEYVIRMRLTVAAPDEALPSAG [r14_973_JUSTAS]	3.12 ± 0.036	2.22 ± 0.033	2.86 ± 0.06
SADDDEEQKEKQKPKPQIPIKPVATYNFPDHPFEIWEIDPDNGRIIIRFWGNGWWYEMDPEDGEWEWYPSAG [r14_359_TrROS]	2.26 ± 0.059	1.81 ± 0.064	2.14 ± 0.14
SADGKVKVVVNLRITVTPLSPDGTPQPLPAASIPLVFEGDANDPEAVEQAVRDVLDALAPLFPDAEIVVDSA [r9_1112_TrMRF]	1.98 ± 0.046	1.23 ± 0.082	1.73 ± 0.13
SADPPDAVKIEIRIYMMEYDPDGKWEQREFNIEIEVAPDGHIIIRLGNWWIVIDPKEGEVTEIFPGFRFSAG [r14_821_TrROS]	3.67 ± 0.18	3.43 ± 0.13	3.14 ± 0.39
SADRIKINVMTHQSPDGRPYYMVSIRIPGNGKEIMGPIDSPEDAEEQAKEIADKLEKEGIPIEVEIYPMSAG [r14_263_TrROS]	1.82 ± 0.09	2.13 ± 0.066	1.94 ± 0.17
SADYVLYLVTLKVRRKVGDKEYELEVPLLILAPEDELDESEIEAIAREAAAELGAEVEEVKIERLPLNASAG [r14_278_TrMRF]	4.88 ± 0.086	3.94 ± 0.11	4.66 ± 0.059
SAEDEYEVELTFEAPLNEPEVIEKIKKELEELGFEIEEVKVEVLEDPKTVKVTLKARVKGIPPEKLKALSAG [r14_956_TrMRF]	1.92 ± 0.099	1.78 ± 0.033	1.82 ± 0.086
SAEELAEAEARRLGVDPAAVALEVTEEVDPLTGKPRKIVTVTIALPDRAYVITVDASDGTVLERRPLEAASA [r9_1219_JUSTAS]	2.15 ± 0.034	2.33 ± 0.051	2.28 ± 0.081
